Reference: patent US20160186149A1

What was measured:
[1] = molecular target: mannose-6-phosphate (M6P) receptor; assay: M6P receptor plate binding assay: receptor coated at 4 ug/mL, GALNS 0.16-10 nM, bound GALNS read by enzyme activity, single-site binding fit
[2] = molecular target: mannose-6-phosphate (M6P) receptor; assay: M6P receptor affinity column (Affi-Gel 15), 6 ug GALNS loaded, eluted with mannose-6-phosphate gradient, quantified by GALNS ELISA
[3] = molecular target: mannose-6-phosphate (M6P) receptor; assay: M6P receptor plate binding assay

Kd [1] [nM] | M6P Receptor Column Binding: % Bound [2] [%] | Kd [3] [nM] | Binder
2.4 | 56 |  | recombinant human N-acetylgalactosamine-6-sulfatase (GALNS), purified, produced from G71S clone 4 co-expressing human SUMF1 (enzyme, Cys at position 53 of the precursor (position 79 of SEQ ID NO:4) converted to Calpha-formylglycine (FGly), about 90%; N-linked glycosylation at Asn178 (bis-phosphorylated mannose 7, BPM7) and Asn397 (oligomannose-type), precursor numbering; 0.58 mol M6P (BPM7)/mol GALNS) APQPPNILLLLMDDMGWGDLGVYGEPSRETPNLDRMAAEGLLFPNFYSANPLCSPSRAALLTGRLPIRNGFYTTNAHARNAYTPQEIVGGIPDSEQLLPELLKKAGYVSKIVGKWHLGHRPQFHPLKHGFDEWFGSPNCHFGPYDNKARPNIPVYRDWEMVGRYYEEFPINLKTGEANLTQIYLQEALDFIKRQARHHPFFLYWAVDATHAPVYASKPFLGTSQRGRYGDAVREIDDSIGKILELLQDLHVADNTFVFFTSDNGAALISAPEQGGSNGPFLCGKQTTFEGGMREPALAWWPGHVTAGQVSHQLGSIMDLFTTSLALAGLTPPSDRAIDGLNLLPTLLQGRLMDRPIFYYRGDTLMAATLGQHKAHFWTWTNSWENFRQGIDFCPGQNVSGVTTHNLEDHTKLPLIFHLGRDPGERFPLSFASAEYQEALSRITSVVQQHQEALVPAQPQLNVCNWAVMNWAPPGCEKLGKCLTPPESIPKKCLWSH
 |  | 5.7 | recombinant human N-acetylgalactosamine-6-sulfatase (GALNS), purified, produced from G71S clone C2 co-expressing human SUMF1 (enzyme, Cys at position 53 of the precursor (position 79 of SEQ ID NO:4) converted to Calpha-formylglycine (FGly); N-linked glycosylation at Asn178 (BPM7) and Asn397; 0.69 mol M6P/mol GALNS) APQPPNILLLLMDDMGWGDLGVYGEPSRETPNLDRMAAEGLLFPNFYSANPLCSPSRAALLTGRLPIRNGFYTTNAHARNAYTPQEIVGGIPDSEQLLPELLKKAGYVSKIVGKWHLGHRPQFHPLKHGFDEWFGSPNCHFGPYDNKARPNIPVYRDWEMVGRYYEEFPINLKTGEANLTQIYLQEALDFIKRQARHHPFFLYWAVDATHAPVYASKPFLGTSQRGRYGDAVREIDDSIGKILELLQDLHVADNTFVFFTSDNGAALISAPEQGGSNGPFLCGKQTTFEGGMREPALAWWPGHVTAGQVSHQLGSIMDLFTTSLALAGLTPPSDRAIDGLNLLPTLLQGRLMDRPIFYYRGDTLMAATLGQHKAHFWTWTNSWENFRQGIDFCPGQNVSGVTTHNLEDHTKLPLIFHLGRDPGERFPLSFASAEYQEALSRITSVVQQHQEALVPAQPQLNVCNWAVMNWAPPGCEKLGKCLTPPESIPKKCLWSH
